According to patent US20020045591A1, “Methods and therapeutic compositions for treating cancer” (priority 1998, published 2002):

Target: T1, LEF-1-β-catenin complex (Mus musculus, UniProt Q02248)
T1 construct: expressed in transfected cells; host or cells: CHO cells, transient transfection
T1 sequence (Q02248 1-781): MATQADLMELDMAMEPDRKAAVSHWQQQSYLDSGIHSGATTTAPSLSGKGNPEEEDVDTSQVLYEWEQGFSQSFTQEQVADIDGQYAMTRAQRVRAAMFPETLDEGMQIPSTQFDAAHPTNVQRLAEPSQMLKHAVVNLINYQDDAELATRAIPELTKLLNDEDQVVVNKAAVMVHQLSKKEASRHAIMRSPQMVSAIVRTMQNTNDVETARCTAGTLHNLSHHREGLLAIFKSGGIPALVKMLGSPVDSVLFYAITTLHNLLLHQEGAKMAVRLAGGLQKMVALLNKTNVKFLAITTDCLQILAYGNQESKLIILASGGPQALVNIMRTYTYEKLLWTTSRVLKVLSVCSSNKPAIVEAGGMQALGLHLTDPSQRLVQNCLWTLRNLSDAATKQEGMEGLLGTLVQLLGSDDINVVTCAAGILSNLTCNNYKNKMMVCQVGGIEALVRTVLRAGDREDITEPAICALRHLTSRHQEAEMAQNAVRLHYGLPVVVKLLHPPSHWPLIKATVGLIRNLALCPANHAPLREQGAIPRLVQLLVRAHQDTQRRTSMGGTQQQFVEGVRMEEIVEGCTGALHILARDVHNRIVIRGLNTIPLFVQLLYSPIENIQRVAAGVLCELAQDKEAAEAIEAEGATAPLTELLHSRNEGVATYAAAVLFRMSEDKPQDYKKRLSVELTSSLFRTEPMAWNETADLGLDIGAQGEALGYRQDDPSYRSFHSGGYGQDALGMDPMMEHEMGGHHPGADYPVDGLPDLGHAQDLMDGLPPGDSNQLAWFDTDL
Experiment: Competition with LEF-1 for β-catenin binding (HA-LEF-1 immunoprecipitation, CHO cells)
Conditions: increasing amounts of N-cadherin tail cDNA, FIG. 8
Description: Immunoblotting and immunoprecipitation: The following antibodies were used: polyclonal pan-cadherin or monoclonal anti cadherin (CH-19) and polyclonal anti β-catenin antibodies were from Sigma (Holon, Israel). Monoclonal anti β-catenin, 5H10 (from M. Wheelock), anti IL2Rα (from UBI), anti flag (M2, from IBI), anti HA (clone 12CA5, from Boehringer Mannheim, Germany), anti GFP (polyclonal, from Clontech, Palo Alto, Calif.), anti LEF-1 (polyclonal, kindly provided by Dr. R. Grosschedl). Secondary antibodies for Western blotting were goat anti rabbit or anti mouse conjugated to HRP (Amersham, Buckinghampshire, UK), and for immunofluorescence analysis the secondary antibodies were FITC-goat anti mouse (Cappel, USA) or rhodamine-anti rabbit antibodies (from Jackson Immuno-Research, West Grove, Pa.). […]
The N-cadherin tail inhibits the formation of a LEF-1-β-catenin complex: The inhibition by N-cadherin of β-catenin driven-transactivation could result from either displacement of LEF-1 binding to β-catenin by N-cadherin, or by formation of a ternary complex (cadherin-LEF-1-β-catenin) that has no transactivation potential. […] After transfection, LEF-1 was immunoprecipitated with anti HA antibody and the associated β-catenin was detected by Western blot analysis (FIG. 8A). […]

B1: N-cadherin tail: Cytoplasmic domain of chicken N-cadherin tagged with a Flag epitope (protein)
chain: MKRRDKERQAKQLLIDPEDDVRDNILKYDEEGGGEEDQDYDLSQLQQPDTVEPDAIKPVGIRRLDERPIHAEPQYPVRSAAPHPGDIGDFINEGLKAADNDPTAPPYDSLLVFDYEGSGSTAGSLSSLNSSSSGGEQDYDYLNDWGPRFKKLADMYGGGDD
modifications: left off: small tags and cut ends
  β-catenin binding to LEF-1: inhibited β-catenin binding to LEF-1 in a dose dependent manner
